Measurements as given in publication PMC4027183.
Where two headings read alike, the source gives them in different places.

Key:
Assay in all cases: ITC
[1] = target: T1, TIA-1 RRM2,3 (Homo sapiens, UniProt P31483-2 93-274)
T1 sequence: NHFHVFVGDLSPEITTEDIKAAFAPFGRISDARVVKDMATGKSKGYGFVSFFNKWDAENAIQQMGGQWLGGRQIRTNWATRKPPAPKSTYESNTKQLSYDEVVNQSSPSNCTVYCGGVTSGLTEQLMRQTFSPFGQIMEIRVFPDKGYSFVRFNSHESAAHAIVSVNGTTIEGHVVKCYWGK

[2] = target: T1, TIA-1 RRM2,3; remark: listed apart in the source
[3] = target: T2, TIA-1 RRM1,2,3 (Homo sapiens, UniProt P31483-2 1-274)
T2 sequence: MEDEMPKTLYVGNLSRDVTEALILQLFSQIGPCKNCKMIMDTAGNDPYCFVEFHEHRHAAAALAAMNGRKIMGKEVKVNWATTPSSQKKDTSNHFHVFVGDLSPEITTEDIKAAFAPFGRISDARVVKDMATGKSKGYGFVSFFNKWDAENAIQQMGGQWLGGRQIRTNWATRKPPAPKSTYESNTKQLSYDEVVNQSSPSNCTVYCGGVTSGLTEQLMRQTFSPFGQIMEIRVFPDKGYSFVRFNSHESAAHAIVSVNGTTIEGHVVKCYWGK

[4] = target: T1, TIA-1 RRM2,3; remark: listed apart in the source

UUUUUUUUU (ssRNA) [U9]
Kd [1]: 7 ± 0.2 nM
Kd [2]: 5.6 ± 1.9 nM

UUUUUUUUUUUUUUU (ssRNA) [U15]
Kd [3]: 16.9 ± 2.7 nM

UUCUCCUUUC (ssRNA) [fas_10]
Kd [4]: 35.6 ± 8.1 nM
